Measured values: article PMC4609494

Legend:
[1] = target: TNF receptor-2 (TNFR-2), rat (rat) (UniProt Q80WY6)
[2] = target: TNF receptor-2 (TNFR-2), rat (rat) (UniProt Q80WY6); remark: listed apart in the source
[3] = target: TNF receptor-1 (TNFR-1), rat (rat) (UniProt P22934)
[4] = target: TNF receptor-1 (TNFR-1), rat (rat) (UniProt P22934); remark: listed apart in the source

Chain of UniProt P22934 (P22934 30-461): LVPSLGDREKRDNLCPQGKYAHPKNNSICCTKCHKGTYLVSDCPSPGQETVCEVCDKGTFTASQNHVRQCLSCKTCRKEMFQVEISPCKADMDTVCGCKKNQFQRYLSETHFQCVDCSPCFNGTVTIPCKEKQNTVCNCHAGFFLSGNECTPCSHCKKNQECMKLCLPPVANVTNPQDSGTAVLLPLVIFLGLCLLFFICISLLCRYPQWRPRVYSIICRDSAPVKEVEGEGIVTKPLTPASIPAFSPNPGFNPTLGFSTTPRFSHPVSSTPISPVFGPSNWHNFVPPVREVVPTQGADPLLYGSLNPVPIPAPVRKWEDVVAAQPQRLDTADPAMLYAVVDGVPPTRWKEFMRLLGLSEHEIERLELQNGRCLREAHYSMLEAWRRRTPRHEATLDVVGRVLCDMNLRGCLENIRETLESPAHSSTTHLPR
Chain of UniProt Q80WY6 (Q80WY6 23-474): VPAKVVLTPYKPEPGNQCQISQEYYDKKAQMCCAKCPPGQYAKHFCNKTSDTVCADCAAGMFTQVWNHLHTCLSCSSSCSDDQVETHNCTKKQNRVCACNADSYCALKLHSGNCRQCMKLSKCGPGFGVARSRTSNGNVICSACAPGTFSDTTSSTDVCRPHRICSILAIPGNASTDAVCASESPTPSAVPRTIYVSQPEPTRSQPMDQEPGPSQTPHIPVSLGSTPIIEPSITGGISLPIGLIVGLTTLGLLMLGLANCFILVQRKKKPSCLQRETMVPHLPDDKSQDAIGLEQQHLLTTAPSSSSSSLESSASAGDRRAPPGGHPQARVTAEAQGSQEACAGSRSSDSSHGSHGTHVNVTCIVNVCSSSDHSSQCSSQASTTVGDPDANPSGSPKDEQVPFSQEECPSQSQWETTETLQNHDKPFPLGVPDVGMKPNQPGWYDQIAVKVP

increase of the voltage-gated sodium channel current I Na(V) in small rat DRG neurons, whole-cell patch clamp, repetitive depolarization to 0 mV, D145 10 pg (dose-dependent over 1-100 pg) [1] [%] | increase of the TTX-resistant NaV1.8 current I NaV(1.8) in small rat DRG neurons, whole-cell patch clamp, repetitive depolarization to 0 mV, D145 100 pg, 300 s after treatment [2] [%] | increase of the voltage-gated sodium channel current I Na(V) in small rat DRG neurons, whole-cell patch clamp, repetitive depolarization to 0 mV, R32W 10 pg (dose-dependent over 1-100 pg) [3] [%] | increase of the TTX-resistant NaV1.8 current I NaV(1.8) in small rat DRG neurons, whole-cell patch clamp, repetitive depolarization to 0 mV, R32W 100 pg, 300 s after treatment [4] [%] | Substance
44.9 | 14.5 | – | – | TNF mutant protein D145 (D143N/A145R), selective TNFR-2 agonist (ligand)
– | – | 27.2 | 18.9 | TNF mutant protein R32W (R32W/S86T), selective TNFR-1 agonist (ligand)
